Reference: the supplement of paper PMC12855868

B1: library; numbered along this chain (parent)
chain: MAAAGGARLLRAASAVLGGPAGRWLHHAGSRAGSSGLLRNRGPGGSAEASRSLSVSARARSSSEDKITVHFINRDGETLTTKGKVGDSLLDVVVENNLDIDGFGACEGTLACSTCHLIFEDHIYEKLDAITDEENDMLDLAYGLTDRSRLGCQICLTKSMDNMTVRVPETVADARQSIDVGKTS

Variants of: B1
Experiment: scaled log2 fold change in cell abundance, elesclomol vs control (0 = silent mean, 1 = nonsense mean) (scaled log2 ratio); higher = higher viability under elesclomol (loss of FDX1 cuproptosis function)
Settings: glucose 10 mM
[1] = with ABC1 FDX1 KO, elesclomol 5 nM, 14 days
[2] = with HEK293T FDX1 KO, elesclomol 40 nM, 11 days
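Also: variant abundance is its share of total variant reads in each endpoint sample, from next-generation sequencing of the integrated ORF PCR-amplified out of genomic DNA.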

Variant	scaled log2 fold change [1]	scaled log2 fold change [2]
MAAAGGARLLRAASAVLGGPAGRWLHHAGSRAGSSGLLRNRGPGGSASASRSLSVSARARSSSEDKITVHFINRDGETLTTKGKVGDSLLDVVVENNLDIDGFGACEGTLACSTCHLIFEDHIYEKLDAITDEENDMLDLAYGLTDRSRLGCQICLTKSMDNMTVRVPETVADARQSIDVGKTS [E48S]	0.616	0.679
MAAAGGARLLRAASAVLGGPAGRWLHHAGSRAGSSGLLRNRGPGGSAEASRSLSVSARARNSSEDKITVHFINRDGETLTTKGKVGDSLLDVVVENNLDIDGFGACEGTLACSTCHLIFEDHIYEKLDAITDEENDMLDLAYGLTDRSRLGCQICLTKSMDNMTVRVPETVADARQSIDVGKTS [S61N]	-0.737	-0.556
MAAAGGARLLRAASAVLGGPAGRWLHHAGSRAGSSGLLRNRGPGGSAEASRSLSVSARARSSSETKITVHFINRDGETLTTKGKVGDSLLDVVVENNLDIDGFGACEGTLACSTCHLIFEDHIYEKLDAITDEENDMLDLAYGLTDRSRLGCQICLTKSMDNMTVRVPETVADARQSIDVGKTS [D65T]	-0.192	
MAAAGGARLLRAASAVLGGPAGRWLHIAGSRAGSSGLLRNRGPGGSAEASRSLSVSARARSSSEDKITVHFINRDGETLTTKGKVGDSLLDVVVENNLDIDGFGACEGTLACSTCHLIFEDHIYEKLDAITDEENDMLDLAYGLTDRSRLGCQICLTKSMDNMTVRVPETVADARQSIDVGKTS [H27I]	-0.11	1.23
MAAAGGARLLRAASAVLGGPAGRWLHHAGSRAGSSGLLRNRGPGGSAEASRSLSVSARARSSSEDKITVHFINRDGETLTTKGKVGDSLLDVVVENNLDIDGFGAVEGTLACSTCHLIFEDHIYEKLDAITDEENDMLDLAYGLTDRSRLGCQICLTKSMDNMTVRVPETVADARQSIDVGKTS [C106V]	1.17	1.11
MAAAGGARLLRAASAVLGGPAGRWLHHAGSRAGSSGLLRNRGPGGSAEASRSLSVSARARSSSEDKITVHFINRDGETLTTKGKVGDSLLDVVVEANLDIDGFGACEGTLACSTCHLIFEDHIYEKLDAITDEENDMLDLAYGLTDRSRLGCQICLTKSMDNMTVRVPETVADARQSIDVGKTS [N96A]	-0.307	1.03
MAAAGGARLLRAASAVLGGPAGRWLHHAGSRAGSSGLLRNRGPGGSAEASRSLSVSARARSSSEDKITVHFINRDGETLTTKGKVGDELLDVVVENNLDIDGFGACEGTLACSTCHLIFEDHIYEKLDAITDEENDMLDLAYGLTDRSRLGCQICLTKSMDNMTVRVPETVADARQSIDVGKTS [S88E]	0.289	0.37
MAAAGGARLLRAASAVLGGPAGRWLHHAGSRAGSSGLLRNRGPGGSAEASRSLSVSARARSSSEDKITVHFINRDGETLTTKGKVGDILLDVVVENNLDIDGFGACEGTLACSTCHLIFEDHIYEKLDAITDEENDMLDLAYGLTDRSRLGCQICLTKSMDNMTVRVPETVADARQSIDVGKTS [S88I]	0.199	
MAAAGGARLLRAASAVLGGPAGRWLHHAGSRAGSSGLLRNRGPGGSAEASRSLSVSARARSSSEDKITVHFINRDGETLTTKGKVGDSLLDVVVENNLDIDGFGACEGTLACSTCHLIFEDHIYEKLDAITDEENDMLDLAYGLTDRSREGCQICLTKSMDNMTVRVPETVADARQSIDVGKTS [L150E]	0.981	1.27
MAAAGGARLLRAASAVLGGPAGRWLHHAGSRAGSSGLLRNRGPGGSAEASRSLSVSARARSSSEDKITVHFINRDGETLTTKGKVGDSLLDVVVENNLDIDGFGACEGTLACSTCHLIFEDHIYEKLDAITDEENDMLDLAYGLTDRSRLGCQICLTKSMDNMTVRVPETVADARQSIDVTKTS [G181T]	0.225	-0.186
MAAAGGARLLRAASAVLGGPAGRWLHHAGSRAGSSGLLRNRGPGGSAEASRSLSVSARARSSSEDKITVHFINRDHETLTTKGKVGDSLLDVVVENNLDIDGFGACEGTLACSTCHLIFEDHIYEKLDAITDEENDMLDLAYGLTDRSRLGCQICLTKSMDNMTVRVPETVADARQSIDVGKTS [G76H]	0.293	-0.385
MAAAGGARLLRAASAVLGGPAGRWLHHAGSRAGSSGLLRNRGPGGSAEASRSLSVSARARSSSEDKITVHFINRDGETLTTKGKVGDSLLDVVVENNLDIDGFGACEGTLACSTCHLIFEDHIYEDLDAITDEENDMLDLAYGLTDRSRLGCQICLTKSMDNMTVRVPETVADARQSIDVGKTS [K126D]	0.116	0.255
MAAAGGARLLRAASAVLGGPAGRWLHHAGSRAGSSGLLRNRGPGGSAEASRSLSVSARARSSSEDKITVHFINGDGETLTTKGKVGDSLLDVVVENNLDIDGFGACEGTLACSTCHLIFEDHIYEKLDAITDEENDMLDLAYGLTDRSRLGCQICLTKSMDNMTVRVPETVADARQSIDVGKTS [R74G]	0.597	-0.839
MAAAGGARLLRAASAVLGGPAGRWLHHAGSRAGSSGLLRNRGPGGSAEASRSLSVSARARSSSEDKITVHFINRDGETLTTKGKVGDSLLDVVVENNLDIDGFGACEGTLACSTCHLIFEDHIYEKLKAITDEENDMLDLAYGLTDRSRLGCQICLTKSMDNMTVRVPETVADARQSIDVGKTS [D128K]	-0.0506	-0.0961
MAAAGGARLLRAASAVLGGPAGRWLHHAGSRAGSSGLLRNRGPGGSAEASRSLSVSARARSSSEDKITVHFINRDGETLTTKGKVGDSLLDVVVENNLDIDGFGACEGTLACSTCHLIFEDYIYEKLDAITDEENDMLDLAYGLTDRSRLGCQICLTKSMDNMTVRVPETVADARQSIDVGKTS [H122Y]	-0.259	
MAAAGGARLLRAASAVLGGPAGRWLHHAGSRAGSSGLLRNRGPGGSAEASRSLSVSARARSSSEDKITVHFINRDGETLTTKGKVGDSLLDVVVENNLDIDGFGACEGTLACSTCHLIFEDHIYEKLDAITDEENDMLDLAYGLTDRSRLGCQICLTKSMDNMTVRVPETVADARQSIDVGKNS [T183N]	-0.0614	
MAAAGGARLLRAASAVLGGPAGRWLHHAGSRAGSSGLLRNRGPGGSAEASRHLSVSARARSSSEDKITVHFINRDGETLTTKGKVGDSLLDVVVENNLDIDGFGACEGTLACSTCHLIFEDHIYEKLDAITDEENDMLDLAYGLTDRSRLGCQICLTKSMDNMTVRVPETVADARQSIDVGKTS [S52H]	-0.197	0.41
MAAAGGARLLRAASAVLGGPAGRWLHHAGSRAGSSGLLRNRGPGGSAEASRSLSVSARARSSSEDKITVHFINRDGETLTMKGKVGDSLLDVVVENNLDIDGFGACEGTLACSTCHLIFEDHIYEKLDAITDEENDMLDLAYGLTDRSRLGCQICLTKSMDNMTVRVPETVADARQSIDVGKTS [T81M]	-0.27	0.26
